Laboratory results as given in patent US20250320480A1, “Immunoglobulin Cleaving Enzyme” (priority 2021, published 2025).
“Also recorded” adds a separate entry of the source.

Tests used:
Type in all cases: biochemical
IgG in human serum = experiment: Activity of IgG hydrolases in human serum; conditions: serum (100%), E:S 1:40, 0-4 hours at 37° C., non-reduced SDS-PAGE
Protocol: FIG. 15. Activity of IgG hydrolases in human serum. Serum (100%) was spiked with IgG hydrolases and activity was analyzed over time using non-reduced SDS-PAGE.
For serum activity assays, an E: S ratio of 1:40 (assuming 10 mg/mL IgG in serum) was used, incubating 0-4 hours at 37° C. before analysis on a non-reduced SDS-PAGE. All enzymes were supplied by Genovis AB.

pig IgG = experiment: Immunoglobulin specificity on SDS-PAGE: pig IgG; conditions: o/n at 37° C.
Protocol: (§1) FIG. 11. Specificity of IdeSork2.0. IdeSork2.0 was mixed with different antibodies and incubated o/n at 37° C. before analysis on SDS-PAGE.
(§2) Various antibodies and antibody based therapeutics were incubated with Xork, IdeS, or IdeZ (1:40 ratio) for 1 hour at 37° C. in PBS, with substrate concentrations ranging between 2-5 mg/mL, before being analyzed on SDS-PAGE. For kinetic studies, a substrate level of 2-200 μM IVIG was used during 10 min at 37° C. before being analyzed on a UHPLC system.

casein = experiment: General protease activity, EnzChek protease assay; conditions: casein substrate, FabULOUS 5 μg, FabRICATOR 10 μg, IdeSORK2.0 10 μg
Protocol: FIG. 2. General protease activity. General protease activity was measured with the EnzCHECK protease assay, using casein as a substrate.
General protease activity was determined using the EnzChek Protease Assay kit, according to manufacturer's instructions. As a positive control the general protease FabULOUS (SpeB, 5 μg) was used, and as a negative control the IgG-specific protease FabRICATOR (IdeS, 10 μg). IdeSORK2.0 was added to a total quantity of 10 μg.

mouse IgG1 = mouse IgG1 (Mus musculus, UniProt P01868); experiment: Immunoglobulin specificity on SDS-PAGE: mouse IgG1; conditions: 37° C., listed as IdeSork2.0
Protocol: FIG. 3. Specificity of IdeSork2.0. IdeSork2.0 was mixed with different antibodies and incubated o/n at 37° C. before analysis on SDS-PAGE. The enzyme itself is noted with an arrow. […] Mouse IgG1, mouse IgG2b and human IgA were not affected by IdeSork2.0.
as §2

rat IgG = experiment: Immunoglobulin specificity on SDS-PAGE: rat IgG; conditions: o/n at 37° C.
Protocol: as §1, §2

guinea pig IgG = experiment: Immunoglobulin specificity on SDS-PAGE: guinea pig IgG; conditions: o/n at 37° C.
Protocol: as §1, §2

[1] = system: human IgG1 hinge/CH2 region; experiment: Site of hydrolysis by IdeSORK2.0, LC-MS; conditions: IgG1, IgG2, fusion proteins, LALA-mutated IgG
Protocol: FIG. 5. IdeSork2.0 hydrolyses the hinge of IgG at an identical site as IdeS. Commercial and non-commercial biologics were hydrolyzed with IdeSork2.0 and hydrolysis products were analyzed using LC-MS.
Several substrates (IgG1, IgG2, fusion proteins, LALA-mutated IgG) were subjected to hydrolysis by IdeSORK2.0 and the site of hydrolysis identified through LC-MS. […] This is the same site that is recognized by IdeS. The site of hydrolysis has been confirmed for etanercept, trastuzumab, cetuximab, as well as two non-commercial monoclonal antibodies.
Subunit fragments were denatured and reduced followed by reversed phase LC-MS analysis. Separation was achieved using a BioResolve RP mAb Polyphenol, 450 Å, 2.7 μm 2.1×100 mm, Waters (0.1% formic acid in water and 0.1% formic acid in 95% acetonitrile as mobile phases) and run on an Agilent 1260/1290 UHPLC system coupled to a Bruker Impact II QTOF mass spectrometer. The obtained data was evaluated in Bruker Compass DataAnalysis software using the MaxEnt algorithm for deconvolution and SNAP algorithm for determination of the monoisotopic molecular weights.

dog IgG = experiment: Immunoglobulin specificity on SDS-PAGE: dog IgG; conditions: o/n at 37° C.
Protocol: as §1, §2

IgG = experiment: Optimal conditions, Box-Behnken design (pH, NaCl, temperature)
Protocol: FIG. 7. IdeSork2.0 optimal conditions. The optimal buffer composition for IdeSork2.0 was determined using a Box-Behnken experimental design, measuring the impact of pH, NaCl and temperature. Output was measures as percentage hydrolysis of IgG.
The optimal conditions for IdeSORK2.0 were assessed using a Box-Behnken experimental design to assess multiple factors and their inter-dependence. […] The enzymatic reaction is mainly driven by the substrate concentration (high concentration favours the reaction), while the enzyme concentration is secondary. This can also be seen as a low percentage IgG not being readily hydrolyzed even after a pro-longed incubation (FIG. 9).
To better understand the optimal conditions needed for the enzyme to exert its activity, a Box-Behnken design was employed for the experiment. Addition of NaCl (0-400 mM), pH (5.5-8.5), [enzyme], [substrate], time, and temperature were parameters investigated. Unless otherwise noted, all experiments were conducted in TBS at an enzyme: substrate ratio of 1:20, for 1 hour at 37° C.

IgG2 = experiment: Comparison to other IgG proteases: IgG2; conditions: SDS-PAGE
Protocol: FIG. 10. IdeSork2.0 is having a similar activity compared to IdeS and IdeZ. To investigate if IdeSork2.0 is hydrolyzing IgG in a similar way as IdeS and IdeZ they were all incubated against IgG1 and IgG2 and analyzed on SDS-PAGE. The cleavage patterns look identical, with both IdeSork2.0 and IdeS having less activity towards IgG2.
To further look into the activity of IdeSORK2.0, its activity was compared with IdeS and IdeZ against both IgG1 and IgG2.

sheep IgG = experiment: Immunoglobulin specificity on SDS-PAGE: sheep IgG; conditions: o/n at 37° C.
Protocol: as §1, §2

[2] = system: denatured and reduced IgG; experiment: Activity on denatured and reduced IgG; conditions: urea-denatured and reduced IgG, E:S 1:10, 5 hours at 37° C.
Protocol: FIG. 17. Denatured IgG was incubated with IgG hydrolases to investigate the necessity of a conserved 3D structure of the substrate for the enzymes to exert their function.
IgG that had been urea-denatured and reduced was incubated with IgG-specific enzymes at an E: S ratio of 1:10, incubating for 5 hours at 37° C. before analysis on SDS-PAGE.

B1: IdeSORK2.0: SEQ ID NO: 2 (N terminal 312 amino acids of IdeSORK) with added N terminal methionine and C-terminal His6; 319 amino acids (protein)
chain: MSKRKLLKKIEKKDTSSVLTQKKQTKTLWADGVQVDDKDFKPSTENFGTNYLAAEYGIGKGYYDINKKFDGTDDDLCSGVVAANQLHWWLDRNKDYIEKYRQQSKDNGVTIGNTDIFELNKLHDEDQSNFFDFIKKSFGNKFLQPERLLNMYINGYGYLTSQDKAKTSQPSPSKLNFFQKVFKNNLLTDKTPINDIDEFSSQTKNALQNHKVLAVSFASIKNRGLGHVVTVWGADFDENGKVVALYVTDSDDRSKNIGNAKLGMKKLRIEVSAQDSSTIKLTGFEDKNSGGSLRHLYSLSTGEQIWKKYFEETHHHHHH
modifications: (IdeSORK2.0) Protein of SEQ ID NO 2 engineered to include an additional N terminal methionine and a C-terminal protein purification tag - His6
Which “Immunoglobulin cleavage activity in the presence of human serum” value (IgG in human serum) does the source give for B1 here?
The value was “demonstrated immunoglobulin cleavage activity”.

And the “Activity on pig (porcine) IgG” value (pig IgG)?
The value was “only showed activity against horse and guinea pig IgG; also recorded: no visible effect”.

And the “General protease activity (signal)” value (casein)?
Its value is “no signs of general protease activity”.

And the “General protease activity (signal)” value (casein; listed as IdeSork 2.0)?
Its value is “did not give any measurable signal”.

And the “Activity towards mouse IgG1” value (mouse IgG1)?
Its value is “not affected”.

What about the “Activity on rat IgG” value (rat IgG) of the same molecule?
Its value is “only showed activity against horse and guinea pig IgG; also recorded: no visible effect”.

What about the “Activity on guinea pig IgG” value (guinea pig IgG) of the same molecule?
Its value is “showed activity”.

And the “Number and position of hydrolytic sites” value [1]?
Its value is “only a single hydrolytic site was detected”.

What about the “Number and position of hydrolytic sites” value ([1]; listed as IdeSork2.0) of the same molecule?
The value was “only observed at a single site in the hinge region”.

What about the “Activity on dog IgG” value (dog IgG) of the same molecule?
Its value is “only showed activity against horse and guinea pig IgG; also recorded: no visible effect”.

And the NaCl optimum (IgG)?
The NaCl optimum was 0 mM.

What about the “NaCl tolerated without a significant drop in activity” value (IgG) of the same molecule?
Its value is “up to 200 mM”.

And the “Requirement for co-factors or reducing agents” value (IgG)?
Its value is “no requirement for co-factors or reducing agents”.

What about the “pH in which highly active” value (IgG) of the same molecule?
The value was 7.0-8.5.

And the pH optimum (IgG)?
The pH optimum was 7.5.

What about the “Effect of temperature on activity” value (IgG; 37° C. versus room temperature) of the same molecule?
The value was “improved when incubated at 37 °C as compared to room temperature”.

And the NaCl range (IgG; >90% activity)?
The NaCl range was 0 to 200 mM.

What about the pH range (IgG; >90% activity) of the same molecule?
The pH range was 6.5-8.5.

What about the “Hydrolysis of IgG2” value (IgG2) of the same molecule?
The value was “able to hydrolyze”.

And the “Hydrolysis of IgG2” value (IgG2; listed as IdeSork2.0)?
Its value is “less activity”.

And the “Activity on sheep IgG” value (sheep IgG)?
Its value is “only showed activity against horse and guinea pig IgG; also recorded: no visible effect”.

And the “Activity against denatured and reduced IgG” value [2]?
Its value is “not active”.
